B1: S. cerevisiae Abp1 (full length; SH3 domain 535-592 mutated) / Hua2 (parent)
chain 1: MALEPIDYTTHSREIDAEYLKIVRGSDPDTTWLIISPNAKKEYEPESTGSSFHDFLQLFDETKVQYGLARVSPPGSDVEKIIIIGWCPDSAPLKTRASFAANFAAVANNLFKGYHVQVTARDEDDLDENELLMKISNAAGARYSIQTSSKQQGKASTPPVKKSFTPSKSPAPVSKKEPVKTPSPAPAAKISSRVNDNNDDDDWNEPELKERDFDQAPLKPNQSSYKPIGKIDLQKVIAEEKAKEDPRLVQKPTAAGSKIDPSSDIANLKNESKLKRDSEFNSFLGTTKPPSMTESSLKNDDDKVIKGFRNEKSPAQLWAERKAKQNSGNAETKAEAPKPEVPEDEPEGEPDVKDLKSKFEGLAASEKEEEEMENKFAPPPKKSEPTIISPKPFSKPQEPVKAEEAEQPKTDYKKIGNPLPGMHIEADNEEEPEENDDDWDDDEDEAAQPPLPSRNVASGAPVQKEEPEQEEIAPSLPSRNSIPAPKQEEAPEQAPEEEIEEEAEEAAPQLPSRSSAAPPPPPRRATPEKKPKENPWATAEYDYDAAEDNELTFVENDKIINIEFVDDDWWLGELEKDGSKGLFPSNYVSLGN
chain 2: MQQTKFGKMYLDHDSVVEYSEDEIVEADRITLGYKKRLSMIENQMRHLLEDFSLDVQQIEPILADLQKYYDAFLQLLQKRNKSLQCKRSTHQPVPSPMNSQTSTNAKVNLSGKLMKFQLNSVQKFDEENILRILQNKIEFEHYFQIDKGKKQKVLLLAVYQCLNGPTRLHKVLNIEGIIHNNSIRTILGKQVSSSKWTVFLYDVKLVLLAHRQDVPNLETSKMIVRYGDLFPCALYFKDHTAY

Variants of: B1
Test: DHFR protein-fragment complementation in yeast (Abp1-DHFR F[1,2] x partner-DHFR F[3]), deep mutational scanning, second methotrexate selection vs reference
Settings: with Hua2; S. cerevisiae, DHFR-PCA selection in liquid with methotrexate at 30 C, two 72 h selections (the score uses the second); reference = the pre-selection culture; not an affinity; value at the no-binding floor (a bound); scale: DMS score: mean over two replicates of log2(f_test/f_ref + 0.5)/ln 2, minus the synonymous-codon median

Q: For chain 1 MALEPIDYTTHSREIDAEYLKIVRGSDPDTTWLIISPNAKKEYEPESTGSSFHDFLQLFDETKVQYGLARVSPPGSDVEKIIIIGWCPDSAPLKTRASFAANFAAVANNLFKGYHVQVTARDEDDLDENELLMKISNAAGARYSIQTSSKQQGKASTPPVKKSFTPSKSPAPVSKKEPVKTPSPAPAAKISSRVNDNNDDDDWNEPELKERDFDQAPLKPNQSSYKPIGKIDLQKVIAEEKAKEDPRLVQKPTAAGSKIDPSSDIANLKNESKLKRDSEFNSFLGTTKPPSMTESSLKNDDDKVIKGFRNEKSPAQLWAERKAKQNSGNAETKAEAPKPEVPEDEPEGEPDVKDLKSKFEGLAASEKEEEEMENKFAPPPKKSEPTIISPKPFSKPQEPVKAEEAEQPKTDYKKIGNPLPGMHIEADNEEEPEENDDDWDDDEDEAAQPPLPSRNVASGAPVQKEEPEQEEIAPSLPSRNSIPAPKQEEAPEQAPEEEIEEEAEEAAPQLPSRSSAAPPPPPRRATPEKKPKENPWATAEYDYDAAEDNELTFVENDKIINIEFVDDDWWLGELEKDGSKGLTPSNYVSLGN [chain 1 F583T], which screen value is on record?
A: The screen value was under -3.06.

Q: Which screen value does the source give for chain 1 MALEPIDYTTHSREIDAEYLKIVRGSDPDTTWLIISPNAKKEYEPESTGSSFHDFLQLFDETKVQYGLARVSPPGSDVEKIIIIGWCPDSAPLKTRASFAANFAAVANNLFKGYHVQVTARDEDDLDENELLMKISNAAGARYSIQTSSKQQGKASTPPVKKSFTPSKSPAPVSKKEPVKTPSPAPAAKISSRVNDNNDDDDWNEPELKERDFDQAPLKPNQSSYKPIGKIDLQKVIAEEKAKEDPRLVQKPTAAGSKIDPSSDIANLKNESKLKRDSEFNSFLGTTKPPSMTESSLKNDDDKVIKGFRNEKSPAQLWAERKAKQNSGNAETKAEAPKPEVPEDEPEGEPDVKDLKSKFEGLAASEKEEEEMENKFAPPPKKSEPTIISPKPFSKPQEPVKAEEAEQPKTDYKKIGNPLPGMHIEADNEEEPEENDDDWDDDEDEAAQPPLPSRNVASGAPVQKEEPEQEEIAPSLPSRNSIPAPKQEEAPEQAPEEEIEEEAEEAAPQLPSRSSAAPPPPPRRATPEKKPKENPWATAEYDYDAAEDNELTFVENDKIINIEFVDDDWWLGELEKDGSKGLWPSNYVSLGN [chain 1 F583W] here?
A: The screen value was under -3.06.

Q: For chain 1 MALEPIDYTTHSREIDAEYLKIVRGSDPDTTWLIISPNAKKEYEPESTGSSFHDFLQLFDETKVQYGLARVSPPGSDVEKIIIIGWCPDSAPLKTRASFAANFAAVANNLFKGYHVQVTARDEDDLDENELLMKISNAAGARYSIQTSSKQQGKASTPPVKKSFTPSKSPAPVSKKEPVKTPSPAPAAKISSRVNDNNDDDDWNEPELKERDFDQAPLKPNQSSYKPIGKIDLQKVIAEEKAKEDPRLVQKPTAAGSKIDPSSDIANLKNESKLKRDSEFNSFLGTTKPPSMTESSLKNDDDKVIKGFRNEKSPAQLWAERKAKQNSGNAETKAEAPKPEVPEDEPEGEPDVKDLKSKFEGLAASEKEEEEMENKFAPPPKKSEPTIISPKPFSKPQEPVKAEEAEQPKTDYKKIGNPLPGMHIEADNEEEPEENDDDWDDDEDEAAQPPLPSRNVASGAPVQKEEPEQEEIAPSLPSRNSIPAPKQEEAPEQAPEEEIEEEAEEAAPQLPSRSSAAPPPPPRRATPEKKPKENPWATAEYDYDAAEDNELTFVENDKIINIEFVDDDWWLAELEKDGSKGLFPSNYVSLGN [chain 1 G572A], which screen value is on record?
A: Its screen value is -3.02.

Q: How did the screen value turn out when chain 1 MALEPIDYTTHSREIDAEYLKIVRGSDPDTTWLIISPNAKKEYEPESTGSSFHDFLQLFDETKVQYGLARVSPPGSDVEKIIIIGWCPDSAPLKTRASFAANFAAVANNLFKGYHVQVTARDEDDLDENELLMKISNAAGARYSIQTSSKQQGKASTPPVKKSFTPSKSPAPVSKKEPVKTPSPAPAAKISSRVNDNNDDDDWNEPELKERDFDQAPLKPNQSSYKPIGKIDLQKVIAEEKAKEDPRLVQKPTAAGSKIDPSSDIANLKNESKLKRDSEFNSFLGTTKPPSMTESSLKNDDDKVIKGFRNEKSPAQLWAERKAKQNSGNAETKAEAPKPEVPEDEPEGEPDVKDLKSKFEGLAASEKEEEEMENKFAPPPKKSEPTIISPKPFSKPQEPVKAEEAEQPKTDYKKIGNPLPGMHIEADNEEEPEENDDDWDDDEDEAAQPPLPSRNVASGAPVQKEEPEQEEIAPSLPSRNSIPAPKQEEAPEQAPEEEIEEEAEEAAPQLPSRSSAAPPPPPRRATPEKKPKENPWATAEYDYDAAEDNELTFVENDKIINIEFVDDDWWLCELEKDGSKGLFPSNYVSLGN [chain 1 G572C] was run?
A: The screen value was under -3.06.

Q: With chain 1 MALEPIDYTTHSREIDAEYLKIVRGSDPDTTWLIISPNAKKEYEPESTGSSFHDFLQLFDETKVQYGLARVSPPGSDVEKIIIIGWCPDSAPLKTRASFAANFAAVANNLFKGYHVQVTARDEDDLDENELLMKISNAAGARYSIQTSSKQQGKASTPPVKKSFTPSKSPAPVSKKEPVKTPSPAPAAKISSRVNDNNDDDDWNEPELKERDFDQAPLKPNQSSYKPIGKIDLQKVIAEEKAKEDPRLVQKPTAAGSKIDPSSDIANLKNESKLKRDSEFNSFLGTTKPPSMTESSLKNDDDKVIKGFRNEKSPAQLWAERKAKQNSGNAETKAEAPKPEVPEDEPEGEPDVKDLKSKFEGLAASEKEEEEMENKFAPPPKKSEPTIISPKPFSKPQEPVKAEEAEQPKTDYKKIGNPLPGMHIEADNEEEPEENDDDWDDDEDEAAQPPLPSRNVASGAPVQKEEPEQEEIAPSLPSRNSIPAPKQEEAPEQAPEEEIEEEAEEAAPQLPSRSSAAPPPPPRRATPEKKPKENPWATAEYDYDAAEDNELTFVENDKIINIEFVDDDWWLDELEKDGSKGLFPSNYVSLGN [chain 1 G572D] as the variant, how does the screen value read?
A: Its screen value is under -3.06.

Q: chain 1 MALEPIDYTTHSREIDAEYLKIVRGSDPDTTWLIISPNAKKEYEPESTGSSFHDFLQLFDETKVQYGLARVSPPGSDVEKIIIIGWCPDSAPLKTRASFAANFAAVANNLFKGYHVQVTARDEDDLDENELLMKISNAAGARYSIQTSSKQQGKASTPPVKKSFTPSKSPAPVSKKEPVKTPSPAPAAKISSRVNDNNDDDDWNEPELKERDFDQAPLKPNQSSYKPIGKIDLQKVIAEEKAKEDPRLVQKPTAAGSKIDPSSDIANLKNESKLKRDSEFNSFLGTTKPPSMTESSLKNDDDKVIKGFRNEKSPAQLWAERKAKQNSGNAETKAEAPKPEVPEDEPEGEPDVKDLKSKFEGLAASEKEEEEMENKFAPPPKKSEPTIISPKPFSKPQEPVKAEEAEQPKTDYKKIGNPLPGMHIEADNEEEPEENDDDWDDDEDEAAQPPLPSRNVASGAPVQKEEPEQEEIAPSLPSRNSIPAPKQEEAPEQAPEEEIEEEAEEAAPQLPSRSSAAPPPPPRRATPEKKPKENPWATAEYDYDAAEDNELTFVENDKIINIEFVDDDWWLFELEKDGSKGLFPSNYVSLGN [chain 1 G572F] was tested. Which screen value did it give?
A: Its screen value is under -3.06.

Q: chain 1 MALEPIDYTTHSREIDAEYLKIVRGSDPDTTWLIISPNAKKEYEPESTGSSFHDFLQLFDETKVQYGLARVSPPGSDVEKIIIIGWCPDSAPLKTRASFAANFAAVANNLFKGYHVQVTARDEDDLDENELLMKISNAAGARYSIQTSSKQQGKASTPPVKKSFTPSKSPAPVSKKEPVKTPSPAPAAKISSRVNDNNDDDDWNEPELKERDFDQAPLKPNQSSYKPIGKIDLQKVIAEEKAKEDPRLVQKPTAAGSKIDPSSDIANLKNESKLKRDSEFNSFLGTTKPPSMTESSLKNDDDKVIKGFRNEKSPAQLWAERKAKQNSGNAETKAEAPKPEVPEDEPEGEPDVKDLKSKFEGLAASEKEEEEMENKFAPPPKKSEPTIISPKPFSKPQEPVKAEEAEQPKTDYKKIGNPLPGMHIEADNEEEPEENDDDWDDDEDEAAQPPLPSRNVASGAPVQKEEPEQEEIAPSLPSRNSIPAPKQEEAPEQAPEEEIEEEAEEAAPQLPSRSSAAPPPPPRRATPEKKPKENPWATAEYDYDAAEDNELTFVENDKIINIEFVDDDWWLHELEKDGSKGLFPSNYVSLGN [chain 1 G572H] was tested. Which screen value did it give?
A: Its screen value is under -3.06.

Q: Which screen value does the source give for chain 1 MALEPIDYTTHSREIDAEYLKIVRGSDPDTTWLIISPNAKKEYEPESTGSSFHDFLQLFDETKVQYGLARVSPPGSDVEKIIIIGWCPDSAPLKTRASFAANFAAVANNLFKGYHVQVTARDEDDLDENELLMKISNAAGARYSIQTSSKQQGKASTPPVKKSFTPSKSPAPVSKKEPVKTPSPAPAAKISSRVNDNNDDDDWNEPELKERDFDQAPLKPNQSSYKPIGKIDLQKVIAEEKAKEDPRLVQKPTAAGSKIDPSSDIANLKNESKLKRDSEFNSFLGTTKPPSMTESSLKNDDDKVIKGFRNEKSPAQLWAERKAKQNSGNAETKAEAPKPEVPEDEPEGEPDVKDLKSKFEGLAASEKEEEEMENKFAPPPKKSEPTIISPKPFSKPQEPVKAEEAEQPKTDYKKIGNPLPGMHIEADNEEEPEENDDDWDDDEDEAAQPPLPSRNVASGAPVQKEEPEQEEIAPSLPSRNSIPAPKQEEAPEQAPEEEIEEEAEEAAPQLPSRSSAAPPPPPRRATPEKKPKENPWATAEYDYDAAEDNELTFVENDKIINIEFVDDDWWLIELEKDGSKGLFPSNYVSLGN [chain 1 G572I] here?
A: The screen value was under -3.06.

Q: With chain 1 MALEPIDYTTHSREIDAEYLKIVRGSDPDTTWLIISPNAKKEYEPESTGSSFHDFLQLFDETKVQYGLARVSPPGSDVEKIIIIGWCPDSAPLKTRASFAANFAAVANNLFKGYHVQVTARDEDDLDENELLMKISNAAGARYSIQTSSKQQGKASTPPVKKSFTPSKSPAPVSKKEPVKTPSPAPAAKISSRVNDNNDDDDWNEPELKERDFDQAPLKPNQSSYKPIGKIDLQKVIAEEKAKEDPRLVQKPTAAGSKIDPSSDIANLKNESKLKRDSEFNSFLGTTKPPSMTESSLKNDDDKVIKGFRNEKSPAQLWAERKAKQNSGNAETKAEAPKPEVPEDEPEGEPDVKDLKSKFEGLAASEKEEEEMENKFAPPPKKSEPTIISPKPFSKPQEPVKAEEAEQPKTDYKKIGNPLPGMHIEADNEEEPEENDDDWDDDEDEAAQPPLPSRNVASGAPVQKEEPEQEEIAPSLPSRNSIPAPKQEEAPEQAPEEEIEEEAEEAAPQLPSRSSAAPPPPPRRATPEKKPKENPWATAEYDYDAAEDNELTFVENDKIINIEFVDDDWWLKELEKDGSKGLFPSNYVSLGN [chain 1 G572K] as the variant, how does the screen value read?
A: Its screen value is under -3.06.

Q: Which screen value does the source give for chain 1 MALEPIDYTTHSREIDAEYLKIVRGSDPDTTWLIISPNAKKEYEPESTGSSFHDFLQLFDETKVQYGLARVSPPGSDVEKIIIIGWCPDSAPLKTRASFAANFAAVANNLFKGYHVQVTARDEDDLDENELLMKISNAAGARYSIQTSSKQQGKASTPPVKKSFTPSKSPAPVSKKEPVKTPSPAPAAKISSRVNDNNDDDDWNEPELKERDFDQAPLKPNQSSYKPIGKIDLQKVIAEEKAKEDPRLVQKPTAAGSKIDPSSDIANLKNESKLKRDSEFNSFLGTTKPPSMTESSLKNDDDKVIKGFRNEKSPAQLWAERKAKQNSGNAETKAEAPKPEVPEDEPEGEPDVKDLKSKFEGLAASEKEEEEMENKFAPPPKKSEPTIISPKPFSKPQEPVKAEEAEQPKTDYKKIGNPLPGMHIEADNEEEPEENDDDWDDDEDEAAQPPLPSRNVASGAPVQKEEPEQEEIAPSLPSRNSIPAPKQEEAPEQAPEEEIEEEAEEAAPQLPSRSSAAPPPPPRRATPEKKPKENPWATAEYDYDAAEDNELTFVENDKIINIEFVDDDWWLLELEKDGSKGLFPSNYVSLGN [chain 1 G572L] here?
A: The screen value was -3.04.
